Reference: patent US20230093512A1
Read-outs that look alike come from different tables or passages of the source.

Columns and labels:
[1] = target: human PD-L1 (PD-L1 aAPC/CHO-K1 cells) (human) (UniProt Q9NZQ7)
[2] = target: human PD-L1 (PD-L1 aAPC/CHO-K1 cells) (human) (UniProt Q9NZQ7); remark: listed apart in the source
TGF-β1 [3] = experiment: ELISA: TGF-β1 coated on the plate, HRP-conjugated 2nd antibody, OD450
[4] = target: PD-L1 that is over expressed on CHO-K1 cells (Homo sapiens (Human)) (UniProt Q9NZQ7); experiment: flow cytometry (FACS) on CHO-K1 cells over expressing PD-L1, geometric mean
TGF-β2 [5] = experiment: ELISA: TGF-β2 coated on the plate, HRP-conjugated 2nd antibody, OD450
TGF-β3 [6] = experiment: ELISA: TGF-β3 coated on the plate, HRP-conjugated 2nd antibody, OD450
TGF-β2 [7] = experiment: ELISA: TGF-β2 coated on the plate, HRP-conjugated 2nd antibody, OD450; remark: listed apart in the source
TGF-β1 [8] = experiment: ELISA: TGF-β1 coated on the plate, HRP-conjugated 2nd antibody, OD450; remark: listed apart in the source
TGF-β1 [9] = experiment: SPR, TGFβ ligand amine-coupled to chip, fusion protein as analyte, 25 °C, HBS-EP
TGF-β3 [10] = experiment: as above
TGF-β2 [11] = experiment: as above
TGF-β3 [12] = experiment: ELISA: TGF-β3 coated on the plate, HRP-conjugated 2nd antibody, OD450; remark: listed apart in the source

Sequence of human PD-L1 (PD-L1 aAPC/CHO-K1 cells) (human) (Q9NZQ7 19-290): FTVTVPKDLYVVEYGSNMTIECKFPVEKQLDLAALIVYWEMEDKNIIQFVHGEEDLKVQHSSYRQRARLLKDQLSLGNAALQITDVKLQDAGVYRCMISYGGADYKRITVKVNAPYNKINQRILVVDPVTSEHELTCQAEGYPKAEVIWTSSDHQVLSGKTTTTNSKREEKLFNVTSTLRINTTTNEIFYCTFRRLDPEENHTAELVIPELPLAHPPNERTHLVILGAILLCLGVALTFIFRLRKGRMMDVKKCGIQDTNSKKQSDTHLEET
Sequence of TGF-β3 (P10600 301-412): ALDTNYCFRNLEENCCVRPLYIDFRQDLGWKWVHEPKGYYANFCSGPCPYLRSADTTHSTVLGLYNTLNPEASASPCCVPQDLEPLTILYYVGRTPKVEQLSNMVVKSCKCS
Sequence of TGF-β2 (P61812 303-414): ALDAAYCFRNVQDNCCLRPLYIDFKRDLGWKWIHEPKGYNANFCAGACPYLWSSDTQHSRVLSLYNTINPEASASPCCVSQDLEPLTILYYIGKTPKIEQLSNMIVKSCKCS
Sequence of TGF-β1 (P01137 279-390): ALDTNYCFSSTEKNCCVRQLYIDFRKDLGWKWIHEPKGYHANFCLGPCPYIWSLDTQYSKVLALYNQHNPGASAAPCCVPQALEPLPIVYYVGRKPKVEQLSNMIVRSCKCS
Sequence of PD-L1 that is over expressed on CHO-K1 cells (Homo sapiens (Human)) (Q9NZQ7 19-290 limits assumed): as the sequence (Q9NZQ7 19-290) above

| EC50, luminescence (RLU) of PD-1 effector cells co-cultured with PD-L1 aAPC/CHO-K1 cells, PD-1/PD-L1 blockade bioassay [1] [nM] | EC50, luminescence (RLU) of PD-1 effector cells co-cultured with PD-L1 aAPC/CHO-K1 cells, PD-1/PD-L1 blockade bioassay [2] [nM] | EC50 (TGF-β1 [3]) [µg/mL] | EC50 [4] [nM] | EC50 (TGF-β2 [5]) [µg/mL] | EC50 (TGF-β3 [6]) [µg/mL] | EC50 (TGF-β2 [7]) [µg/mL] | EC50 (TGF-β1 [8]) [µg/mL] | Kd (TGF-β1 [9]) [nM] | koff (TGF-β1 [9]) [s⁻¹] | kon (TGF-β1 [9]) [M⁻¹ s⁻¹] | Kd (TGF-β3 [10]) [nM] | koff (TGF-β3 [10]) [s⁻¹] | kon (TGF-β3 [10]) [M⁻¹ s⁻¹] | Kd (TGF-β2 [11]) [nM] | koff (TGF-β2 [11]) [s⁻¹] | kon (TGF-β2 [11]) [M⁻¹ s⁻¹] | EC50 (TGF-β3 [12]) [µg/mL] | Substance |
| --- | --- | --- | --- | --- | --- | --- | --- | --- | --- | --- | --- | --- | --- | --- | --- | --- | --- | --- |
| 0.852 | 0.77 | 0.255 | 0.344 | 0.348 | 0.278 | 0.432 | 0.327 | 0.943 | 0.000315 | 334000 | 1.02 | 0.00032 | 314000 | 4.6 | 0.00132 | 286000 | 0.307 | M7824 |
| 0.398 |  |  |  |  |  |  |  |  |  |  |  |  |  |  |  |  |  | Tecentriq (antibody) |
